The source of these data is paper doi:10.1101/2023.08.11.553006, “Short oligomers rather than rings of human RAD52 promote single-strand annealing” (bioRxiv, 2023).

One data set deals with T1, RAD52(209) (Homo sapiens, UniProt P43351 1-209).
T1 sequence: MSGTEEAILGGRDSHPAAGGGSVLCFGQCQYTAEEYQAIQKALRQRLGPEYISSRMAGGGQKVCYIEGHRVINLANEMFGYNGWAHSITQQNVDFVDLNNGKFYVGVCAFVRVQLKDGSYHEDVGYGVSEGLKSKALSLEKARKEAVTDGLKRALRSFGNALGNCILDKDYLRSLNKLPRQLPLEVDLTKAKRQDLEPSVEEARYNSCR
Briefly: EMSA (native annealing gel); 50-200 nM protein: annealed product runs at protein-free level; at 1 uM a ring band contains both strands (annealed or not unclear); EMSA: 25 mM Tris-acetate pH 7.5, 2 mM Mg(OAc)2, 1 mM DTT, 10 nM ssDNA, 25 C 10 min or 37 C 5 min; mass photometry: 20 mM Tris-HCl pH 7.5, 50 mM NaCl. The settings on record: protein: recombinant; tags: His tag (pET-15b, Ni-NTA); chain copies: 11; label: 3'-ALEXA488 (Methods: ATTO488) on 48 nt; 3'-ATTO680 on 60 nt; 3' overhang 12 nt (T12) on strand 2. For orientation: In EMSA bound probe runs differently from free probe, usually more slowly.

Data set [1] concerns the molecule itself. As to the kind of experiment: mass photometry; label-free single molecules landing on glass slides; Buffer 1 (Tris-HCl 20 mM, NaCl 50 mM, pH 7.5); nanomolar protein concentrations, increasing series; protomers to rings.

“And” between values parts separate entries of the source, which are not always exact repeats. Equal values may be shown once.

B1: 48/60 nt annealed product (dsDNA)
DNA 1: GCAATTAAGCTCTAAGCCATCCGCAAAAATGACCTCTTATCAAAAGGA
DNA 2: TCCTTTTGATAAGAGGTCATTTTTGCGGATGGCTTAGAGCTTAATTGCTTTTTTTTTTTT
As to B1, the binding result with RAD52(209) is listed as “no binding”.

B2: truncated RAD52(209) (domain or fragment, human, UniProt P43351 1-209, looked up)
chain: T1 sequence
notes: expected monomer molecular weight printed as 25.3 kDa; No removal of the tag is described; Plasmid was a gift from S.C; West; also called C-terminally truncated RAD52; source: E. coli BL21(DE3) with pRARE, purified (His-trap Ni-NTA, Hiload 16/600 superdex)
As usually defined, the stoichiometry N is the number of molecules, sites or subunits per partner or assembly. With B2, the “stoichiometry N” value in data set [1] came to 11 protomers per ring.

B3: full-length human RAD52 (natural protein, UniProt P43351 1-418, looked up)
chain: MSGTEEAILGGRDSHPAAGGGSVLCFGQCQYTAEEYQAIQKALRQRLGPEYISSRMAGGGQKVCYIEGHRVINLANEMFGYNGWAHSITQQNVDFVDLNNGKFYVGVCAFVRVQLKDGSYHEDVGYGVSEGLKSKALSLEKARKEAVTDGLKRALRSFGNALGNCILDKDYLRSLNKLPRQLPLEVDLTKAKRQDLEPSVEEARYNSCRPNMALGHPQLQQVTSPSRPSHAVIPADQDCSSRSLSSSAVESEATHQRKLRQKQLQQQFRERMEKQQVRVSTPSAEKSEAAPPAPPVTHSTPVTVSEPLLEKDFLAGVTQELIKTLEDNSEKWAVTPDAGDGVVKPSSRADPAQTSDTLALNNQMVTQNRTPHSVCHQKPQAKSGSWDLQTYSADQRTTGNWESHRKSQDMKKRKYDPS
notes: RAD52, human, full length; expected monomer molecular weight printed as 48.4 kDa; No removal of the tag is described; Plasmid was a gift from W. Kagawa; source: E. coli BL21(DE3) with pRARE, purified (His-trap Ni-NTA, Hiload 16/600 superdex)
Regarding B3, in data set [1], the “stoichiometry N” value was 7 protomers per ring to 13 protomers per ring (2×) and 10 protomers per ring and 10.6 protomers per ring.
